Data: patent US20230391872A1 (ANAPTYSBIO, published 2023)

Key:
[1] = target: T1, cynomolgus monkey BTLA on cells (stably transfected 293c18 clone 1G5); cynomolgus peripheral blood T and B … (cynomolgus monkey, UniProt A0A2K5W7M7 31-289); assay: flow cytometry, AF647-labeled 6G3 IgG4 on cynomolgus monkey peripheral blood CD20+ B cells
T1 construct: whole, on cells; also called cynomolgus monkey BTLA 293c18 cells
T1 sequence: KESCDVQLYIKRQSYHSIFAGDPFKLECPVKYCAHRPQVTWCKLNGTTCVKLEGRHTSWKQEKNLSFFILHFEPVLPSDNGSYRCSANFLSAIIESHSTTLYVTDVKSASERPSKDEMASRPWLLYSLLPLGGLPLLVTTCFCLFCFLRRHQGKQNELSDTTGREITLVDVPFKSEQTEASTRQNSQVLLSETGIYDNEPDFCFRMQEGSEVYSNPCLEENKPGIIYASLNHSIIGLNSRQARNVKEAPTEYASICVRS
Protocol: (§1) Blood was then aliquoted into wells and incubated with the indicated concentrations of 6G3-AF647 (APE13766.02), or APC-Mouse Anti-Human CD272 (BTLA) reference antibody (clone J168-540; BD Biosciences) for minutes at room temperature, in the dark. Following incubation, red blood cells were lysed for minutes by addition of 2.0 ml diluted BD Pharm Lyse lysing solution (BD Biosciences), samples centrifuged at 200×g for 5 minutes, washed in FACS Buffer [Dulbecco's PBS, no calcium, no magnesium (Gibco/ThermoFisher Scientific), 25 mM HEPES, pH 7.2, 0.1% BSA, sodium azide] and fixed in 4% paraformaldehyde (200 μl/sample) for 10 minutes at room temperature. Samples were washed twice in FACS Buffer and analyzed for fluorescence on a NovoCyte Quanteon flow cytometer (ACEA Biosciences, Inc.). Data were analyzed using NovoExpress Software (ACEA Biosciences, Inc.). Mean fluorescence intensity (MFI) values were graphed and fit with nonlinear regression analyses in GraphPad Prism (GraphPad Software, Inc.). MFI values for each anti-BTLA antibody on total CD3+cells are shown in FIG. 5A; MFI values for each anti-BTLA antibody on total CD20+cells are shown in FIG. 5B. […] Binding of each anti-BTLA antibody to CD3⁻ cells in FIG. 5C and FIG. 5D (green cells in the bottom quadrants of each panel) reflects the binding to CD20⁺ B cells. […]

[2] = target: T1, cynomolgus monkey BTLA on cells (stably …); assay: flow cytometry, AF647-labeled 6G3 IgG4 on cynomolgus monkey peripheral blood CD3+ T cells; not saturated at 100 nM
Protocol: as §1

[3] = target: T2, cynomolgus monkey BTLA ECD-his (monomeric cynomolgus monkey BTLA-his) (cynomolgus monkey, UniProt A0A2K5W7M7 31-157); assay: Kinetic Exclusion Assay (KinExA 3000), solution phase, 6G3 IgG4 APE10840.04 at 100 pM, cynomolgus monkey BTLA ECD-his titrated
T2 construct: extracellular domain; also called cynomolgus monkey BTLA extracellular domain
T2 sequence: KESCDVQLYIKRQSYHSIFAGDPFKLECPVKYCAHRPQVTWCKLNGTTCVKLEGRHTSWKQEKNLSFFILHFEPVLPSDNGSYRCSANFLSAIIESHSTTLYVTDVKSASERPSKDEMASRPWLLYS
Protocol: Solution-based affinity measurements of 6G3 IgG4 (APE10840.04 (H Chain SEQ ID NO: 144, L Chain SEQ ID NO: 174)) binding to BTLA were determined on a KinExA 3000 (Sapidyne Instruments). Azlactone beads (ThermoFisher Scientific) were coated with human BTLA ECD-his (30 μg/ml) or cynomolgus monkey BTLA ECD-his (20 μg/ml) in 50 mM Na2CO3 for 2 hours at room temperature and blocked with 10 mg/ml BSA. 6G3 IgG4 APE10840.04 concentration was kept constant at 100 pM for binding in both human and cynomolgus monkey BTLA experiments. Human or cynomolgus monkey BTLA ECD-his was added at 25° C. in 2.5-fold dilutions from 1000 nM to 68 fM. Sample sets were equilibrated at 4° C. for 72 hours and brought to room temperature for 6 hours before capturing free antibody with BTLA-coupled Azlactone beads. […] Maximum and background signals were determined on samples with 6G3 only and buffer only, respectively. Data were analyzed using KinExA Pro Software 3.2.6.

[4] = target: T3, human BTLA ECD-his (monomeric human BTLA-his) (human, UniProt Q7Z6A9 31-157); assay: SPR, Biacore T200, antibody captured on anti-human IgG, monomeric human BTLA-his as analyte, 25 °C, 1:1 model; 6G3 IgG4 (APE10840.05) captured on the chip; human BTLA-his analyte
T3 construct: extracellular domain; also called human BTLA extracellular domain
T3 sequence (looked up): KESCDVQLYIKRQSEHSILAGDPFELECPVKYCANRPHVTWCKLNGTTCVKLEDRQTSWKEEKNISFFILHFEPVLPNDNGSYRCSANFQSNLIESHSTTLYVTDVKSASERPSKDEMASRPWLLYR
Protocol: Surface plasmon resonance (SPR) analyses were carried out using a Biacore T200 (GE Healthcare Life Sciences). Kinetic constants were determined using a 1:1 binding model in the Biacore T200 Evaluation Software to calculate on- and off-rates (kₐ and kd, respectively), and dissociation constants as a measure of overall affinity (KD). Anti-human IgG (GE Healthcare Life Sciences) was immobilized on a CMS chip using EDC-activated amine coupling chemistry (420 seconds contact at a flow rate of 10 μl/min). Antibodies (APE10585.04 6G3 IgG1 and APE10840.05 6G3 IgG4), each at 0.5 μg/m1) were captured in a 60 second contact with the flow cell using a flow rate of 10 μl/min. Monomeric human BTLA-his or cynomolgus monkey BTLA-his at 60 nM, 20 nM, 6.7 nM and 2.2 nM concentrations was flowed over captured antibody (480 seconds association, 1800 seconds dissociation). Runs were at 25° C. and used buffer containing 10 mM HEPES, pH 7.6, 150 mM NaCl, 3 mM EDTA, 0.05% polysorbate 20 (HBS-EP+, pH 7.6; Teknova) for the mobile phase and all dilutions. At the end of each cycle, bound antigen was removed by regeneration with two successive exposures (60 seconds and 90 seconds) to 3 M MgCl2 (30 μl/min). Sensorgrams and binding constants corresponding to the experiment are shown in FIG. 1 (human BTLA) and FIG. 1 (cynomolgus monkey BTLA). […]

- EC50 [1]: ~1.4 nM
- EC50 [2]: ~3.4 nM
- Kd [3]: ~1.66 nM
- Kd [4]: ~5 nM
B1: 6G3 IgG4 anti-BTLA antibody (APE10840 / APE12839 / APE13308) (antibody, V domains shown)
VH: QVQLVQSGAEVKKPGSSVKVSCKASGYVFSTSWMNWVRQAPGQGLEWMGRIYPGDADTNYVGKFKGRVTITADKSTTTAYMELSSLRSEDTAVYFCAKSGTFNFGNYRWYFDVWGKGTTVTVSS
VL: AIQLTQSPSSLSASVGDRVTITCRVSENIYSHLAWYQQKPGKAPKLLIYAATNLALGVPSRFSGSGSGTDYTLTISSLQPEDFATYYCQLFWGPPLTFGGGTKVEIKR
notes: Humanized antibody from a mouse hybridoma, tested as human IgG4 (detected with anti-human kappa); Some assays used labelled lots (DyLight 650, AF647, biotin, DyL488); also called 6G3 antibody; APE10840.03
